# From article PMC2849990 (Structure (London, England : 1993), 2008)
# T1: human pyruvate dehydrogenase (E1p) component, heterotetramer alpha2beta2 (Homo sapiens, UniProt P08559+P11177, P08559:Y118F)
# T1 sequence (P08559 30-390 Y118F): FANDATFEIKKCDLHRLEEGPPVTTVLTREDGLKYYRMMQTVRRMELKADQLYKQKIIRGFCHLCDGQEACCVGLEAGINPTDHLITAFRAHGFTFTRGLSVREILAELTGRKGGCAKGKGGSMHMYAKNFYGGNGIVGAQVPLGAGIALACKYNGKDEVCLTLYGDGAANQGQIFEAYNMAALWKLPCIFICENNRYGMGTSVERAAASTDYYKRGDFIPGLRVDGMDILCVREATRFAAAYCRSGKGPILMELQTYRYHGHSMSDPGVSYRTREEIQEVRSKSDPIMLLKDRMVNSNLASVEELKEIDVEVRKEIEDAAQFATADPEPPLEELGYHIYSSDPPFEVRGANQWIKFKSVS
# T1 sequence (P11177 31-359): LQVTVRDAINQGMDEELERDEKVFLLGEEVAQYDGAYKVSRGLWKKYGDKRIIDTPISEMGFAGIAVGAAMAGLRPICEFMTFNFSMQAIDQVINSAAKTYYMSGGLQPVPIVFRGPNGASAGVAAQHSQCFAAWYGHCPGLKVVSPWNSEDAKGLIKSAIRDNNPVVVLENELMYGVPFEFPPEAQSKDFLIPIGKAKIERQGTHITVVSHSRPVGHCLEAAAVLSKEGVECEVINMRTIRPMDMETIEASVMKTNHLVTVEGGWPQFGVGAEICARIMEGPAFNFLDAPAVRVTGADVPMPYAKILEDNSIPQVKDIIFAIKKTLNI
# T2: human pyruvate dehydrogenase (E1p) component, heterotetramer alpha2beta2 (Homo sapiens, UniProt P08559+P11177)
# T2 sequence (P08559 30-390): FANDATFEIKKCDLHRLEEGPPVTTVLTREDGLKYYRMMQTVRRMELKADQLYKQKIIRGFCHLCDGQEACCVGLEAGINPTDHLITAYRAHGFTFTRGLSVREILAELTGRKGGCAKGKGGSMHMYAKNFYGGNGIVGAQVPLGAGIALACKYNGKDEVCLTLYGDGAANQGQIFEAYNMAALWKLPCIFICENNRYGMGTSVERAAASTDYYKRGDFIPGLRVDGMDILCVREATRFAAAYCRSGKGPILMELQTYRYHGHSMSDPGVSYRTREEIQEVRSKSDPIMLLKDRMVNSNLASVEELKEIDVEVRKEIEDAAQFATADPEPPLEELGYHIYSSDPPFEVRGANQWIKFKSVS
# T2 sequence (P11177 31-359): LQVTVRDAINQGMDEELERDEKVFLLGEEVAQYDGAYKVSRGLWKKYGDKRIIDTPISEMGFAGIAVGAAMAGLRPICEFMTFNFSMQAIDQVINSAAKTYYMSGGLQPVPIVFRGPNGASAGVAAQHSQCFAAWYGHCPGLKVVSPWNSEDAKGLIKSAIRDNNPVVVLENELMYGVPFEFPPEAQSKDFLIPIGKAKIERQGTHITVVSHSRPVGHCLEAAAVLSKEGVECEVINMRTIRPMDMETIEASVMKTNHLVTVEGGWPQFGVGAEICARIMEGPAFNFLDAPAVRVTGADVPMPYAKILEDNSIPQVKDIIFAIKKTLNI
# T3: E1p-α subunit of S1-E1p (S271A-α, S203A-α) (human, UniProt P08559 30-390, S271A-α | S203A-α)
# T3 sequence: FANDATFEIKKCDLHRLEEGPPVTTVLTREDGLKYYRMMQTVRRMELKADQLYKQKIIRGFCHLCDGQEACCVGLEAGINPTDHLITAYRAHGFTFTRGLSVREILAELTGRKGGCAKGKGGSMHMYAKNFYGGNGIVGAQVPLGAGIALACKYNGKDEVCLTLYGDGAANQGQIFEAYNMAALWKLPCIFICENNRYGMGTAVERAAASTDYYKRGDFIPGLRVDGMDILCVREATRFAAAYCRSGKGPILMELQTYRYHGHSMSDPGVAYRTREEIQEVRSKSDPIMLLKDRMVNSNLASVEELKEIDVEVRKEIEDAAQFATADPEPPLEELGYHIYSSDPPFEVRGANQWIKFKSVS
# T4: E1p-α subunit of wild-type human E1p (human, UniProt P08559 30-390)
# T4 sequence: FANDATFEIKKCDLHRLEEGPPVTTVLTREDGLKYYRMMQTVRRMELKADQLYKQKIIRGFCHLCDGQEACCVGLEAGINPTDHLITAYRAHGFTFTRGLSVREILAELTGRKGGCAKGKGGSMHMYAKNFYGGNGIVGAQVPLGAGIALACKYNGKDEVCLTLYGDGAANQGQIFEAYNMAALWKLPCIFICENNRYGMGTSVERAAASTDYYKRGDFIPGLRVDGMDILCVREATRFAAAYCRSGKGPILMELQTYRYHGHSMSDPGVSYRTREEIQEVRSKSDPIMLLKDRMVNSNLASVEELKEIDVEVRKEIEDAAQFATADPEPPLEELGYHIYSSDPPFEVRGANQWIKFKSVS
# T5: E1p-α subunit of Y89F-α mutant E1p (human, UniProt P08559 30-390, Y89F-α)
# T5 sequence: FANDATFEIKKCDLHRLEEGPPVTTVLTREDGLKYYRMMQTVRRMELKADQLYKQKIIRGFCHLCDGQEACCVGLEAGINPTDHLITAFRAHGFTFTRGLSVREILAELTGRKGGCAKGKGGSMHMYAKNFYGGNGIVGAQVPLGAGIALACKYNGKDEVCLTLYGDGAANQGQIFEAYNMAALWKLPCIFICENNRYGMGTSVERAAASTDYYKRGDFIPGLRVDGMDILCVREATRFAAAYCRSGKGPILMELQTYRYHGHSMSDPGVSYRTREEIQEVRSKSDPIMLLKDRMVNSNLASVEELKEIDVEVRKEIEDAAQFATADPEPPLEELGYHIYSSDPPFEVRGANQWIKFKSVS
# Key:
# [1] = biological target: T1, human pyruvate dehydrogenase (E1p) component, heterotetramer alpha2beta2; test: tryptophan fluorescence quenching; type: binding
# [2] = biological target: T2, human pyruvate dehydrogenase (E1p) component, heterotetramer alpha2beta2; test: tryptophan fluorescence quenching; type: binding
# [3] = biological target: T3, E1p-α subunit of S1-E1p (S271A-α, …); test: crystal structure
# [4] = biological target: T4, E1p-α subunit of wild-type human E1p; test: crystal structure
# [5] = biological target: T5, E1p-α subunit of Y89F-α mutant E1p; test: crystal structure
Molecule,Kd [1] [µM],Kd [2] [µM],binding result [3],binding result [4],binding result [5]
Cc1ncc(C[n+]2csc(CCO[P@](=O)(O)OP(=O)(O)O)c2C)c(N)n1 [ThDP],50.2 ± 4.6,0.11 ± 0.01,,,
E1p-β subunit of human E1p (natural protein) LQVTVRDAINQGMDEELERDEKVFLLGEEVAQYDGAYKVSRGLWKKYGDKRIIDTPISEMGFAGIAVGAAMAGLRPICEFMTFNFSMQAIDQVINSAAKTYYMSGGLQPVPIVFRGPNGASAGVAAQHSQCFAAWYGHCPGLKVVSPWNSEDAKGLIKSAIRDNNPVVVLENELMYGVPFEFPPEAQSKDFLIPIGKAKIERQGTHITVVSHSRPVGHCLEAAAVLSKEGVECEVINMRTIRPMDMETIEASVMKTNHLVTVEGGWPQFGVGAEICARIMEGPAFNFLDAPAVRVTGADVPMPYAKILEDNSIPQVKDIIFAIKKTLNI,,,binds,binds,binds
